Paper PMC12262048, “Nodal modulator (NOMO) is a force-bearing transmembrane protein required for muscle differentiation” (The Journal of Cell Biology, 2025)
“And” between values parts separate entries of the source, which are not always exact repeats. Equal values may be shown once.

T1: His6-Ig 10–11 (NOMO1 Ig-like domains 10–11) (human)
T1 chain: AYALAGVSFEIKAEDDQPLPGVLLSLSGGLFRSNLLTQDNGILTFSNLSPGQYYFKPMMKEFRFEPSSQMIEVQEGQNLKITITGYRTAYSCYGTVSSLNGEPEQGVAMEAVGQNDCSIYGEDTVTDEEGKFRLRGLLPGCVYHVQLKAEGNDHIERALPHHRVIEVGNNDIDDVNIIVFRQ

T2: His6-Ig 1–2 (NOMO1 Ig-like domains 1–2) (human)
T2 chain: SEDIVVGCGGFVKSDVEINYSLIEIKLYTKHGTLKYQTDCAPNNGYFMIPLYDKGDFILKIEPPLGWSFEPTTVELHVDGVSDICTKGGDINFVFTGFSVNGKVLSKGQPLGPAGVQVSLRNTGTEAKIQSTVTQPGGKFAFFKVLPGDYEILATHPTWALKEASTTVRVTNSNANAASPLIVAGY


How the values were obtained:
[1] = biological target: T1, His6-Ig 10–11 (NOMO1 Ig-like domains …); assay: ITC
[2] = biological target: T2, His6-Ig 1–2 (NOMO1 Ig-like domains 1–2); assay: ITC; VP-ITC, 25°C; 300 µM His6-Ig 10–11 injected from the syringe into the cell with 20 µM His6-Ig 1–2 or His6-Ig 1–2^3-Mut; 50 mM Tris-HCl pH 7.5, 100 mM NaCl, 5 mM MgCl2, 5 mM CaCl2; n = 3; conditions: both partners purified
[3] = biological target: the molecule itself; assay: SEC-MALS; room temperature; 50 mM MES pH 6.0, 150 mM KCl, 5 mM CaCl2, 5 mM MgCl2, 2% glycerol, 0.05% DDM; 1–1.5 mg/ml; molar mass corrected for detergent

Binder	stoichiometry N [3]	further results
His6-Ig 1–2 (NOMO1 Ig-like domains 1–2) (domain or fragment, N-terminal His6 tag omitted; limits not given, taken from signal peptide end to the Ig 2/Ig 3 boundary N-terminal His6 tag omitted; limits not given, set from Ig fold boundaries and the ~20 kD size of Ig 10-11) SEDIVVGCGGFVKSDVEINYSLIEIKLYTKHGTLKYQTDCAPNNGYFMIPLYDKGDFILKIEPPLGWSFEPTTVELHVDGVSDICTKGGDINFVFTGFSVNGKVLSKGQPLGPAGVQVSLRNTGTEAKIQSTVTQPGGKFAFFKVLPGDYEILATHPTWALKEASTTVRVTNSNANAASPLIVAGY	–	Kd [1]: 2800 nM and 1400 nM and 1300 nM
His6-Ig 10–11 (NOMO1 Ig-like domains 10–11) (domain or fragment, N-terminal His6 tag omitted; limits not given, set from Ig fold boundaries and the ~20 kD size of Ig 10-11 / N-terminal His6 tag omitted; limits not given, taken from signal peptide end to the Ig) AYALAGVSFEIKAEDDQPLPGVLLSLSGGLFRSNLLTQDNGILTFSNLSPGQYYFKPMMKEFRFEPSSQMIEVQEGQNLKITITGYRTAYSCYGTVSSLNGEPEQGVAMEAVGQNDCSIYGEDTVTDEEGKFRLRGLLPGCVYHVQLKAEGNDHIERALPHHRVIEVGNNDIDDVNIIVFRQ	–	Kd [2]: 1830 ± 840 nM
FL WT NOMO (NOMO1^WT-FLAG) (natural protein, human, UniProt Q15155 32-1222, looked up, NOMO1 (nodal modulator 1), human, full length; Results and legend call it NOMO-FLAG, the methods Flag-NOMO^WT: the end of the tag is not clear; also called WT NOMO-FLAG; Flag-NOMO^WT; source: Expi293F, transfected, purified (anti-FLAG M2 beads, FLAG peptide elution, SEC) in DDM) SEDIVVGCGGFVKSDVEINYSLIEIKLYTKHGTLKYQTDCAPNNGYFMIPLYDKGDFILKIEPPLGWSFEPTTVELHVDGVSDICTKGGDINFVFTGFSVNGKVLSKGQPLGPAGVQVSLRNTGTEAKIQSTVTQPGGKFAFFKVLPGDYEILATHPTWALKEASTTVRVTNSNANAASPLIVAGYNVSGSVRSDGEPMKGVKFLLFSSLVTKEDVLGCNVSPVPGFQPQDESLVYLCYTVSREDGSFSFYSLPSGGYTVIPFYRGERITFDVAPSRLDFTVEHDSLKIEPVFHVMGFSVTGRVLNGPEGDGVPEAVVTLNNQIKVKTKADGSFRLENITTGTYTIHAQKEHLYFETVTIKIAPNTPQLADIIATGFSVCGQISIIRFPDTVKQMNKYKVVLSSQDKDKSLVTVETDAHGSFCFKAKPGTYKVQVMVPEAETRAGLTLKPQTFPLTVTNRPMMDVAFVQFLASVSGKVSCLDTCGDLLVTLQSLSRQGEKRSLQLSGKVNAMTFTFDNVLPGKYKISIMHEDWCWKNKSLEVEVLEDDMSAVEFRQTGYMLRCSLSHAITLEFYQDGNGRENVGIYNLSKGVNRFCLSKPGVYKVTPRSCHRFEQAFYTYDTSSPSILTLTAIRHHVLGTITTDKMMDVTVTIKSSIDSEPALVLGPLKSVQELRREQQLAEIEARRQEREKNGNEEGEERMTKPPVQEMVDELQGPFSYDFSYWARSGEKITVTPSSKELLFYPPSMEAVVSGESCPGKLIEIHGKAGLFLEGQIHPELEGVEIVISEKGASSPLITVFTDDKGAYSVGPLHSDLEYTVTSQKEGYVLTAVEGTIGDFKAYALAGVSFEIKAEDDQPLPGVLLSLSGGLFRSNLLTQDNGILTFSNLSPGQYYFKPMMKEFRFEPSSQMIEVQEGQNLKITITGYRTAYSCYGTVSSLNGEPEQGVAMEAVGQNDCSIYGEDTVTDEEGKFRLRGLLPGCVYHVQLKAEGNDHIERALPHHRVIEVGNNDIDDVNIIVFRQINQFDLSGNVITSSEYLPTLWVKLYKSENLDNPIQTVSLGQSLFFHFPPLLRDGENYVVLLDSTLPRSQYDYILPQVSFTAVGYHKHITLIFNPTRKLPEQDIAQGSYIALPLTLLVLLAGYNHDKLIPLLLQLTSRLQGVRALGQAASDNSGPEDAKRQAKKQKTRRT	2	–
NOMOr^4-Mut-FLAG (FL NOMO1 K66E, D70K, D121K, K931E) (natural protein, human, UniProt Q15155 32-1222, looked up, NOMO1, human, full length, four charge-reversal mutations at the Ig 1/10/11 interface; Results and legend call it -FLAG, the methods Flag-NOMO^4-Mut: the end of the tag is not clear; also called NOMO^4Mut-FLAG; Flag-NOMO^4-Mut; source: Expi293F, transfected, purified (anti-FLAG M2 beads, FLAG peptide elution, SEC) in DDM) SEDIVVGCGGFVKSDVEINYSLIEIKLYTKHGTLEYQTKCAPNNGYFMIPLYDKGDFILKIEPPLGWSFEPTTVELHVDGVSDICTKGGKINFVFTGFSVNGKVLSKGQPLGPAGVQVSLRNTGTEAKIQSTVTQPGGKFAFFKVLPGDYEILATHPTWALKEASTTVRVTNSNANAASPLIVAGYNVSGSVRSDGEPMKGVKFLLFSSLVTKEDVLGCNVSPVPGFQPQDESLVYLCYTVSREDGSFSFYSLPSGGYTVIPFYRGERITFDVAPSRLDFTVEHDSLKIEPVFHVMGFSVTGRVLNGPEGDGVPEAVVTLNNQIKVKTKADGSFRLENITTGTYTIHAQKEHLYFETVTIKIAPNTPQLADIIATGFSVCGQISIIRFPDTVKQMNKYKVVLSSQDKDKSLVTVETDAHGSFCFKAKPGTYKVQVMVPEAETRAGLTLKPQTFPLTVTNRPMMDVAFVQFLASVSGKVSCLDTCGDLLVTLQSLSRQGEKRSLQLSGKVNAMTFTFDNVLPGKYKISIMHEDWCWKNKSLEVEVLEDDMSAVEFRQTGYMLRCSLSHAITLEFYQDGNGRENVGIYNLSKGVNRFCLSKPGVYKVTPRSCHRFEQAFYTYDTSSPSILTLTAIRHHVLGTITTDKMMDVTVTIKSSIDSEPALVLGPLKSVQELRREQQLAEIEARRQEREKNGNEEGEERMTKPPVQEMVDELQGPFSYDFSYWARSGEKITVTPSSKELLFYPPSMEAVVSGESCPGKLIEIHGKAGLFLEGQIHPELEGVEIVISEKGASSPLITVFTDDKGAYSVGPLHSDLEYTVTSQKEGYVLTAVEGTIGDFKAYALAGVSFEIKAEDDQPLPGVLLSLSGGLFRSNLLTQDNGILTFSNLSPGQYYFKPMMEEFRFEPSSQMIEVQEGQNLKITITGYRTAYSCYGTVSSLNGEPEQGVAMEAVGQNDCSIYGEDTVTDEEGKFRLRGLLPGCVYHVQLKAEGNDHIERALPHHRVIEVGNNDIDDVNIIVFRQINQFDLSGNVITSSEYLPTLWVKLYKSENLDNPIQTVSLGQSLFFHFPPLLRDGENYVVLLDSTLPRSQYDYILPQVSFTAVGYHKHITLIFNPTRKLPEQDIAQGSYIALPLTLLVLLAGYNHDKLIPLLLQLTSRLQGVRALGQAASDNSGPEDAKRQAKKQKTRRT	2	–
